Measurements published in the supplement of paper PMC9732359.
± gives the uncertainty stated by the source.

Assay: protein stability index of a GFP-peptide fusion (yeast GPS) (PSI 1-4); higher = more stable; sorted into four equal gates, so the index is relative within each strain
Procedure, shortened: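 For each peptide, the protein stability index sums the read frequency in every gate after multiplying it by the gate number. Read frequencies came from plasmids that were PCR-amplified from each gate and Illumina-sequenced, with reads assigned to strains by barcodes. The gates were four equal bins of GFP/Cherry fluorescence ratio applied to mid-log yeast in leucine-free medium carrying a pooled library of tiled 17-residue yeast protein peptides fused downstream of GFP on a Cherry-expressing plasmid.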

| Sequence | protein stability index (doa10∆) | protein stability index (pdr5∆) | protein stability index (san1∆) | protein stability index (ubr1∆) |
| --- | --- | --- | --- | --- |
| SYDRTLLIADSRRPEPK [RPS16A] | 2.25 ± 0.043 | 2.48 ± 0.068 | 2.03 ± 0.075 | 2.29 ± 0.058 |
| TTRNGFMEAQGAGIQII [FAS2] | 2.81 ± 0.13 | 2.31 ± 0.12 |  | 3.26 ± 0.11 |
| LVPKRCLFESLSNEAAL [RPO31] |  | 2.84 ± 0.2 |  | 2.78 ± 0.22 |
| SNSALFRAVGEGNAQLV [FAS1] | 2.15 ± 0.11 | 2.37 ± 0.11 | 2.27 ± 0.096 | 1.94 ± 0.09 |
| GLMKSYKIPKVMKDIYK [ESC2] | 3.15 ± 0.27 | 3.38 ± 0.12 | 2.42 ± 0.26 | 2.92 ± 0.11 |
| NDYLEKHSVTEYIFEAH [CDC53] |  | 2.79 ± 0.12 | 3.12 ± 0.094 | 3.17 ± 0.1 |
| DNVSKNALDKLRNNLNS [YCG1] | 3.23 ± 0.12 | 3.19 ± 0.13 | 2.24 ± 0.29 | 3.01 ± 0.17 |
| VSTEGNVPQTLAPVPYE [RPL21A] | 3.19 ± 0.072 | 3.02 ± 0.085 | 3.11 ± 0.05 | 3.05 ± 0.068 |
| GNGELYMDCLLYDLRAS [SNU114] | 2.03 ± 0.058 | 2.12 ± 0.1 | 1.91 ± 0.13 | 2.29 ± 0.077 |
| TQTSKEQEIENNGLPMK [ITC1] | 2.9 ± 0.075 | 3.2 ± 0.12 | 2.87 ± 0.1 | 2.86 ± 0.089 |
| KNEKLILEESLNAIILK [SMC3] | 2.74 ± 0.075 | 2.64 ± 0.087 | 2.18 ± 0.17 | 2.65 ± 0.064 |
| AKKTIQNPLNKSQNTAL [SIR4] | 3.02 ± 0.058 | 3.1 ± 0.054 | 2.99 ± 0.042 | 3.08 ± 0.045 |
| TMETKTLPEKKQFDSIF [SIR4] | 2.44 ± 0.047 | 2.69 ± 0.057 | 2.84 ± 0.047 | 2.65 ± 0.043 |
| ELAAKEEPAKEEAPAPT [FAS2] | 3.08 ± 0.2 | 3.24 ± 0.14 |  |  |
| KISDDELERILKELSNL [RPB4] | 3.16 ± 0.13 | 3.17 ± 0.091 |  | 3 ± 0.1 |
| KKTVAGGAYTVSTAAAA [RPL43A] | 2.43 ± 0.068 | 2.46 ± 0.065 | 2.15 ± 0.074 | 2.15 ± 0.05 |
| LTYDKDLTNNPQDDDSQ [MTR3] | 2.8 ± 0.073 | 3.21 ± 0.099 | 3 ± 0.081 | 3.1 ± 0.075 |
| IALILAIQMVDPASFYL [SMC3] | 1.16 ± 0.05 | 1.25 ± 0.055 | 2.1 ± 0.12 | 1.98 ± 0.063 |
| MVVQKYKLSTVVLRLYL [GRR1] | 1.66 ± 0.069 | 1.58 ± 0.049 | 1.38 ± 0.081 | 1.64 ± 0.068 |
| APTRELVQQIQKETQKV [PRP28] | 2.8 ± 0.087 | 3.14 ± 0.078 | 2.95 ± 0.06 | 3.14 ± 0.065 |
| QQQQQNTNNNDTIATSA [GAL11] | 2.457 ± 0.021 | 2.576 ± 0.02 | 2.478 ± 0.021 | 2.603 ± 0.018 |
| QPASYHSVQETNKISPK [SSN2] | 3.34 ± 0.098 | 3.1 ± 0.12 | 3.08 ± 0.068 | 1.91 ± 0.069 |
| EDLLHYIEEKHPTIYES [POP4] | 3.47 ± 0.078 | 3.4 ± 0.093 | 3.37 ± 0.077 | 3.27 ± 0.084 |
| VMPVPNVRSSVLQKVIE [SKP1] | 2.33 ± 0.05 | 2.43 ± 0.052 | 2.38 ± 0.052 | 2.35 ± 0.045 |
| IGVIAGGGRVDKPLLKA [RPL2A] | 3.2 ± 0.088 | 3.16 ± 0.09 | 3.05 ± 0.11 | 2.98 ± 0.066 |

| Sequence | protein stability index (doa10∆) | protein stability index (pdr5∆) | protein stability index (san1∆) | protein stability index (ubr1∆) |
| --- | --- | --- | --- | --- |
| FQAHEITSFLLSKMENV [NAS6] | 1.79 ± 0.079 | 1.53 ± 0.045 | 1.66 ± 0.094 | 1.69 ± 0.045 |
| NQKIPDNVIVINHKINN [SIR3] | 1.93 ± 0.06 | 2.03 ± 0.053 | 1.79 ± 0.066 | 2.14 ± 0.041 |
| DYQVQGLNWLISLHENK [ISW2] | 1.53 ± 0.052 | 2.15 ± 0.058 | 1.64 ± 0.078 | 2.19 ± 0.054 |
| ESWFKALAGSEINWRHA [FAS1] | 3.31 ± 0.11 | 2.54 ± 0.081 | 2.63 ± 0.083 | 2.59 ± 0.057 |
| FFMSERSSRLHIVYSLL [YML103C/NUP188] | 1.91 ± 0.06 | 2.33 ± 0.079 | 1.55 ± 0.11 | 2.08 ± 0.053 |
| EPEFHALSQSSLLKTKL [RRI1] | 2.15 ± 0.042 | 2.69 ± 0.039 | 2.39 ± 0.042 | 2.24 ± 0.037 |
| VELPYGAHGYSGFYTFS [PRE1] | 2.92 ± 0.17 | 2.32 ± 0.17 | 2.9 ± 0.13 | 2.83 ± 0.095 |
| PLKIHRTPYLTSLKKIK [SWI1] | 1.81 ± 0.054 | 1.82 ± 0.043 | 1.75 ± 0.07 | 1.79 ± 0.039 |
| VIFLSSLLTLVGSVTYQ [YJL039C/NUP192] | 1.39 ± 0.14 | 1.21 ± 0.14 | 1.14 ± 0.28 | 1.2 ± 0.13 |
| ELLDQVTLGREGQIIQR [CDC53] | 3.07 ± 0.14 | 3.73 ± 0.18 |  | 3.21 ± 0.19 |
| FNQRDGEHEKSNILLNS [MED1] | 2.4 ± 0.087 | 1.96 ± 0.11 | 2.99 ± 0.17 | 3.21 ± 0.11 |
| PRINNISAEDRADTDLA [SNF2] | 1.94 ± 0.15 | 2.51 ± 0.14 | 3.02 ± 0.084 | 2.86 ± 0.086 |
| KLKRNSDRREHDEKLSD [LIN1] | 3.51 ± 0.23 | 2.49 ± 0.16 | 3.22 ± 0.11 | 2.96 ± 0.13 |
| ESLILKWDNQSASRAKN [RGR1] | 3.16 ± 0.05 | 3.24 ± 0.055 | 2.9 ± 0.05 | 3.09 ± 0.052 |
| LILQRLKDLNLTVSIKI [RGR1] | 1.76 ± 0.073 | 1.96 ± 0.071 | 2.65 ± 0.072 | 1.98 ± 0.052 |
| VWYGLSDGEDGHIPWHI [SSN2] | 3.05 ± 0.08 | 3.25 ± 0.091 | 3.07 ± 0.053 | 3.1 ± 0.062 |
| RDYQRINKNSKIALREY [POP4] | 2.77 ± 0.081 | 2.29 ± 0.053 | 2.69 ± 0.076 | 2.73 ± 0.063 |
| RNVTIQLENADTGTLDT [RPN2] | 3.11 ± 0.095 | 3.2 ± 0.082 | 3.13 ± 0.069 | 3.2 ± 0.093 |
| NYGMIAINPGRVAASFS [FAS1] | 1.72 ± 0.1 | 1.89 ± 0.09 | 1.46 ± 0.076 | 1.81 ± 0.06 |
| SYRLLPQINILQPIKGE [RPC40] | 2.04 ± 0.094 | 2.1 ± 0.087 | 1.74 ± 0.067 | 2.03 ± 0.064 |
| EAESQWYIEKVIRIPMQ [CSI1] |  | 2.96 ± 0.24 |  | 2.71 ± 0.24 |
| FNPQDTEENIKGETNSE [RRP45] | 3.36 ± 0.26 | 3.19 ± 0.14 | 3.22 ± 0.19 | 3.12 ± 0.18 |
| PYMPYYYYYHPMNAPTP [DSN1] | 2.52 ± 0.043 | 2.71 ± 0.043 | 2.64 ± 0.045 | 2.69 ± 0.032 |
| NDEGVWDLVDERTKQRT [PRP8] | 3.19 ± 0.12 | 3.37 ± 0.13 | 3.35 ± 0.13 | 3.26 ± 0.12 |
| DHEFVLISLIMTTWRKL [YMR129W/POM152] | 1.3 ± 0.12 | 1.09 ± 0.075 | 1.1 ± 0.14 | 1.26 ± 0.07 |

| Sequence | protein stability index (doa10∆) | protein stability index (pdr5∆) | protein stability index (san1∆) | protein stability index (ubr1∆) |
| --- | --- | --- | --- | --- |
| CCTKFFTMMTSEPLTLK [PCI8] | 2.03 ± 0.07 | 2.15 ± 0.057 | 1.98 ± 0.12 | 1.64 ± 0.053 |
| KPYDINVVLVTNDRLNR [DIS3] | 1.69 ± 0.085 | 2.92 ± 0.098 | 2.96 ± 0.094 | 3.08 ± 0.094 |
| PKHSYLSGNPLTSVTND [SIR4] | 2.67 ± 0.073 | 3.03 ± 0.071 | 3.17 ± 0.056 | 2.97 ± 0.074 |
| SKLEGTINKAVQVKVLG [ESC2] | 1.57 ± 0.11 | 1.93 ± 0.12 | 1.66 ± 0.21 | 1.75 ± 0.086 |
| LLTEELAKSGSTEETTA [TAF14] | 3.05 ± 0.15 | 3.05 ± 0.091 | 2.82 ± 0.1 | 2.74 ± 0.087 |
| KSDEAKWKPVLSHIVYF [RPN5] | 2.29 ± 0.067 | 2.21 ± 0.062 | 2.23 ± 0.058 | 2.03 ± 0.047 |
| RMIPPRMVRSIMWQLLD [SSN3] | 1.95 ± 0.18 | 1.68 ± 0.12 | 1.56 ± 0.11 |  |
| AVYFADTSGLKISNSEF [SIN4] | 2.96 ± 0.072 | 3.32 ± 0.08 | 3.1 ± 0.049 | 3.18 ± 0.063 |
| GQGAFGNMCRGGRMFAP [RPL4A] | 3.61 ± 0.2 | 3.06 ± 0.27 | 3.23 ± 0.067 | 3.4 ± 0.11 |
| ILNFLNQEDLFELVHHF [YML103C/NUP188] | 2.56 ± 0.14 | 2.8 ± 0.083 | 1.88 ± 0.22 | 2.16 ± 0.072 |
| RDVMCTDGVIGSRTTTN [RPO31] | 3.2 ± 0.11 | 3.48 ± 0.084 | 3.16 ± 0.084 | 3.16 ± 0.052 |
| MINGVYYNEISRDLDIS [POP6] | 2.09 ± 0.26 | 1.21 ± 0.14 |  | 1.76 ± 0.12 |
| LNESDCLEACSFILSSL [YDL116W/NUP84] | 2.62 ± 0.056 | 2.58 ± 0.052 | 2.96 ± 0.052 | 2.65 ± 0.041 |
| IDNLKDTLKENATEVQK [ITC1] | 2.66 ± 0.05 | 2.87 ± 0.068 | 2.92 ± 0.05 | 2.88 ± 0.05 |
| AQQQKRGGFGGRNRGRP [RPS2] | 3.32 ± 0.17 | 3.26 ± 0.13 | 3.31 ± 0.069 | 3.51 ± 0.15 |
| SLSEFARRRQPTDQNNQ [SNF2] | 2.89 ± 0.11 | 3.12 ± 0.13 | 3.1 ± 0.067 | 2.87 ± 0.1 |
| AFITQLESSITDAGVLA [YJL039C/NUP192] | 1.54 ± 0.06 | 1.6 ± 0.057 | 1.16 ± 0.14 | 1.08 ± 0.096 |
| MDDEEWRSKRIEQLFPV [RPC53] | 3.24 ± 0.085 | 2.31 ± 0.055 | 2.89 ± 0.049 | 2.37 ± 0.041 |
| NVFGTLQRHSGISSTLV [YLR018C/POM34] | 2.03 ± 0.09 | 2.01 ± 0.096 | 1.77 ± 0.23 | 3.25 ± 0.27 |
| NQIQRQQQQQFRHHVQI [SNF5] | 1.86 ± 0.04 | 2.08 ± 0.045 | 1.88 ± 0.085 | 1.91 ± 0.03 |
| KFFRVKYENKISTVIEV [SMC3] | 1.35 ± 0.13 | 1.2 ± 0.11 | 1.09 ± 0.28 | 1.12 ± 0.087 |
| KTKFQYKFLDQNSDAST [YIL149C/MLP2] | 3.08 ± 0.1 | 3.01 ± 0.096 | 2.94 ± 0.078 | 3.06 ± 0.08 |
| DQITKMKDRLVEWNDQV [RPN9] | 3.35 ± 0.12 | 3.05 ± 0.099 | 3.43 ± 0.079 | 3.29 ± 0.079 |
| NECQRLQNIVMDCTKEE [YIL149C/MLP2] | 2.61 ± 0.093 | 3.47 ± 0.11 | 3.66 ± 0.2 | 3.4 ± 0.12 |
